According to article PMC4516795 (The Journal of Experimental Medicine, 2015):

B1: parent anti-basigin mAb (antibody, V domains shown)
VH: EVQLQQSGPELVKTGASVKISCKASGYSFSDDYMHWVKQSHGKSLEWIGYISCYNGVPSYNQKFKGKATFTVDTSSSTAYMQFSSLTSEDSAVYYCARGGNHGFYYHAMDYWGQGTSVTVSS
VL: DIVLTQSPAILSVSPGERVSFSCRASQSIGTGIHWYQQRTNGSPRLLIKFASESISGIPSRFSGSGSGTDFTLSINSVESEDIADYFCQQSTSWPYTFGGGTKLEIK
B2: recombinant chimeric anti-basigin antibody Ab-1 (antibody, V domains shown)
VH: EVQLQQSGPELVKTGASVKISCKASGYSFSDDYMHWVKQSHGKSLEWIGYISCYNGVPSYNQKFKGKATFTVDTSSSTAYMQFSSLTSEDSAVYYCARGGNHGFYYHAMDYWGQGTSVTVSS
VL: DIVLTQSPAILSVSPGERVSFSCRASQSIGTGIHWYQQRTNGSPRLLIKFASESISGIPSRFSGSGSGTDFTLSINSVESEDIADYFCQQSTSWPYTFGGGTKLEIK

Biological target: purified monomeric (gel filtered) recombinant basigin (Homo sapiens, UniProt P35613-2, strain)
Assay: SPR

Binder	Kd
B1	~4 nM
B2	~4 nM
